Results reported in patent publication US20060240053.

Row | Substance | autocleavage in acetate buffer pH 4.5, SDS-PAGE over time
1 | GST-SASPase C27 mutant E/D (aspartic acid No. 212 substituted to glutamic acid) | The mutated forms (A/D) and (E/D), for their part, do not autoactivate
2 | GST-SASPase C27 mutant A/D (aspartic acid No. 212 substituted to alanine) | The mutated forms (A/D) and (E/D), for their part, do not autoactivate
